Assay results taken from patent US20220017622A1 (Pfizer, published 2022).

T1: human B7-H4 on cells (human, UniProt Q7Z7D3 25-282)
T1 construct: whole, on cells; Tumour cell lines with endogenous B7-H4 or HEK293 transfected with human B7-H4
T1 sequence (looked up): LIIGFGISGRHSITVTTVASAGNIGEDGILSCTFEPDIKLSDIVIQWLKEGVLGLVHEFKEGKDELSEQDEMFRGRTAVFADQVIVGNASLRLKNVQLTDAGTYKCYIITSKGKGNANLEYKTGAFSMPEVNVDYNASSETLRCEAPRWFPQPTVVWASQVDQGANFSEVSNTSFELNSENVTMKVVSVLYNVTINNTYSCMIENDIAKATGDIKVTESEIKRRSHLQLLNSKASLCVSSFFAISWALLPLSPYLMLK


Legend:
[1] = target: T1, human B7-H4 on cells; test: flow cytometry on MX-1 cells, 37 C
[2] = target: T2, human CD3 on primary human T cells (human, UniProt P07766 23-207; P04234 22-171); test: flow cytometry on primary human T cells, 37 C
T2 construct: whole, on cells; On cells the whole CD3/TCR complex is present
T2 sequence (P07766 23-207, chain 1 of 2): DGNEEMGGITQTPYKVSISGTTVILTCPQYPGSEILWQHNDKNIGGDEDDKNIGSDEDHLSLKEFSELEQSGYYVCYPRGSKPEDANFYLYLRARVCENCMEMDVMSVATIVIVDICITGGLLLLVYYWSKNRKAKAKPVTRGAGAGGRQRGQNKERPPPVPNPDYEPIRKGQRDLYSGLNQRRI
T2 sequence (P04234 22-171, chain 2 of 2): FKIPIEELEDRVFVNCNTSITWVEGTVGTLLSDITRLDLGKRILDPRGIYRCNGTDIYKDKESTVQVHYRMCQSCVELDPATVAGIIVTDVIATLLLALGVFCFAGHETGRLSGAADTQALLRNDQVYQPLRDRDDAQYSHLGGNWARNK

[3] = target: T1, human B7-H4 on cells; test: cell-based or functional assay
[4] = target: T3, human CD3 (delta/epsilon heterodimer) (human, UniProt P07766 23-126; P04234 22-105); test: SPR 37 C; CD3 delta/epsilon on anti-His chip, bispecific analyte
T3 construct: captured on an anti-His chip, so it carries a His tag; also called huCD3
T3 sequence (P07766 23-126, stated change not applied, chain 1 of 2): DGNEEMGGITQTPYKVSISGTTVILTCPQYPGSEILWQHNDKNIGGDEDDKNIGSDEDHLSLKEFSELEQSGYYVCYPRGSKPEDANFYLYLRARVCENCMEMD
T3 sequence (P04234 22-105, stated change not applied, chain 2 of 2): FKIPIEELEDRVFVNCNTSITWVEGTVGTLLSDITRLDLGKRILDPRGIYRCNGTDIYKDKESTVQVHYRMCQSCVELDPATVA

[5] = target: T4, cyno CD3 (delta/epsilon heterodimer) (cyno, UniProt Q95LI5 22-117; Q95LI8 22-105); test: as above
T4 construct: also called cyCD3
T4 sequence (Q95LI5 22-117, stated change not applied, chain 1 of 2): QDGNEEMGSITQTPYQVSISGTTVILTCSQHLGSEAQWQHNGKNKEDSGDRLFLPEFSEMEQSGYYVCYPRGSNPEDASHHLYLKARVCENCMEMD
T4 sequence (Q95LI8 22-105, stated change not applied, chain 2 of 2): as the sequence (P04234 22-105, stated change not applied, chain 2 of 2) above, with I5V, N15K, I20V, S32T, D33N, I34N, T64A, S74N, V83L counted along it

[6] = target: T3, human CD3 (delta/epsilon heterodimer); test: SPR 25 C; CD3 delta/epsilon on anti-His chip, bispecific analyte
[7] = target: T4, cyno CD3 (delta/epsilon heterodimer); test: as above
Wherever T cell mediated tumor cell killing, MDA-MB-468 is given: unit not given here.
Wherever T cell mediated tumor cell killing, OVCAR3-Luc is given: unit not given here.
Wherever T cell mediated tumor cell killing, T47D is given: unit not given here.

| EC50 [1] [µM] | EC50 [2] [µM] | Kd [4] [µM] | koff [4] [s⁻¹] | kon [4] [M⁻¹ s⁻¹] | Kd [5] [µM] | koff [5] [s⁻¹] | kon [5] [M⁻¹ s⁻¹] | Kd [6] [µM] | koff [6] [s⁻¹] | kon [6] [M⁻¹ s⁻¹] | Kd [7] [µM] | koff [7] [s⁻¹] | kon [7] [M⁻¹ s⁻¹] | Binder | T cell mediated tumor cell killing EC50, HCC1954-Luc [3] [µM] | T cell mediated tumor cell killing, OVCAR3-Luc [3] | T cell mediated tumor cell killing, T47D [3] | T cell mediated tumor cell killing, MDA-MB-468 [3] |
| --- | --- | --- | --- | --- | --- | --- | --- | --- | --- | --- | --- | --- | --- | --- | --- | --- | --- | --- |
| 0.0131 | 0.00556 | – | – | – | – | – | – | – | – | – | – | – | – | B7-H4xCD3 bispecific antibody 1168 (bispecific antibody, IgG2, Chains 1-2: B7-H4 arm; chains 3-4: CD3 arm; IgG2) heavy 1: EVQLLESGGGLVQPGGSLRLSCAASGFTFSSYAMSWVRQAPGKGLEWVSAISGGGGSTYYADSVKGRFTISRDNSKNTLYLQMNSLRAEDTAVYYCARDIQWYGESTLFDYWGQGTLVTVSSASTKGPSVFPLAPCSRSTSESTAALGCLVKDYFPEPVTVSWNSGALTSGVHTFPAVLQSSGLYSLSSVVTVPSSNFGTQTYTCNVDHKPSNTKVDKTVERKCEVECPECPAPPVAGPSVFLFPPKPKDTLMISRTPEVTCVVVAVSHEDPEVQFNWYVDGVEVHNAKTKPREEQFNSTFRVVSVLTVVHQDWLNGKEYKCKVSNKGLPSSIEKTISKTKGQPREPQVYTLPPSREEMTKNQVSLTCEVKGFYPSDIAVEWESNGQPENNYKTTPPMLDSDGSFFLYSKLTVDKSRWQQGNVFSCSVMHEALHNHYTQKSLSLSPG light 1: DIQMTQSPSSLSASVGDRVTITCRASQSTRSWLAWYQQKPGKAPKLLIYKASSLESGVPSRFSGSGSGTDFTLTISSLQPEDFATYYCQQYGSYSRTFGQGTKVEIKRTVAAPSVFIFPPSDEQLKSGTASVVCLLNNFYPREAKVQWKVDNALQSGNSQESVTEQDSKDSTYSLSSTLTLSKADYEKHKVYACEVTHQGLSSPVTKSFNRGEC heavy 2: EVQLVESGGGLVQPGGSLRLSCAASGFTFSDYYMTWVRQAPGKGLEWVAFIRNQARGYTSDHNPSVKGRFTISRDNAKNSLYLQMNSLRAEDTAVYYCARDRPSYYVLDYWGQGTTVTVSSASTKGPSVFPLAPCSRSTSESTAALGCLVKDYFPEPVTVSWNSGALTSGVHTFPAVLQSSGLYSLSSVVTVPSSNFGTQTYTCNVDHKPSNTKVDKTVERKCRVRCPRCPAPPVAGPSVFLFPPKPKDTLMISRTPEVTCVVVAVSHEDPEVQFNWYVDGVEVHNAKTKPREEQFNSTFRVVSVLTVVHQDWLNGKEYKCKVSNKGLPSSIEKTISKTKGQPREPQVYTLPPSREEMTKNQVSLTCLVKGFYPSDIAVEWESNGQPENNYKTTPPMLDSDGSFFLYSRLTVDKSRWQQGNVFSCSVMHEALHNHYTQKSLSLSPGK light 2: DIQMTQSPSSLSASVGDRVTITCTSSQSLFNVRSQKNYLAWYQQKPGKAPKLLIYWASTRESGVPSRFSGSGSGTDFTLTISSLQPEDFATYYCKQSYDLFTFGGGTKVEIKRTVAAPSVFIFPPSDEQLKSGTASVVCLLNNFYPREAKVQWKVDNALQSGNSQESVTEQDSKDSTYSLSSTLTLSKADYEKHKVYACEVTHQGLSSPVTKSFNRGEC | 2.17 | 360 | 1910 | – |
| – | – | 0.063 | 0.0349 | 554000 | 0.0689 | 0.0349 | 506000 | 0.0132 | 0.00553 | 420000 | 0.0135 | 0.00506 | 374000 | B7-H4xCD3 bispecific antibody 0068 (bispecific antibody, IgG2, Chains 1-2: B7-H4 arm; chains 3-4: CD3 arm; IgG2 EEE/RRR; also called anti-B7-H4 clone 37D4) heavy 1: EVQLLESGGGLVQPGGSLRLSCAASGFTFSSYAMSWVRQAPGKGLEWVSAISGGGGSTYYADSVKGRFTISRDNSKNTLYLQMNSLRAEDTAVYYCARDIQWFGESTLFDYWGQGTLVTVSSASTKGPSVFPLAPCSRSTSESTAALGCLVKDYFPEPVTVSWNSGALTSGVHTFPAVLQSSGLYSLSSVVTVPSSNFGTQTYTCNVDHKPSNTKVDKTVERKCEVECPECPAPPVAGPSVFLFPPKPKDTLMISRTPEVTCVVVAVSHEDPEVQFNWYVDGVEVHNAKTKPREEQFNSTFRVVSVLTVVHQDWLNGKEYKCKVSNKGLPSSIEKTISKTKGQPREPQVYTLPPSREEMTKNQVSLTCEVKGFYPSDIAVEWESNGQPENNYKTTPPMLDSDGSFFLYSKLTVDKSRWQQGNVFSCSVMHEALHNHYTQKSLSLSPGK light 1: DIQLTQSPSTLSASVGDRVTITCRASQSIRSWLAWFQQKPGKAPKLLIYKASSLEGGVPSRFSGSGSGTEFTLTISSLQPDDFATYYCQQYNSYSRTFGQGTKVEIKRTVAAPSVFIFPPSDEQLKSGTASVVCLLNNFYPREAKVQWKVDNALQSGNSQESVTEQDSKDSTYSLSSTLTLSKADYEKHKVYACEVTHQGLSSPVTKSFNRGEC heavy 2: EVQLVESGGGLVQPGGSLRLSCAASGFTFSDYYMTWVRQAPGKGLEWVAFIRNQARGYTSDHNPSVKGRFTISRDNAKNSLYLQMNSLRAEDTAVYYCARDRPSYYVLDYWGQGTTVTVSSASTKGPSVFPLAPCSRSTSESTAALGCLVKDYFPEPVTVSWNSGALTSGVHTFPAVLQSSGLYSLSSVVTVPSSNFGTQTYTCNVDHKPSNTKVDKTVERKCRVRCPRCPAPPVAGPSVFLFPPKPKDTLMISRTPEVTCVVVAVSHEDPEVQFNWYVDGVEVHNAKTKPREEQFNSTFRVVSVLTVVHQDWLNGKEYKCKVSNKGLPSSIEKTISKTKGQPREPQVYTLPPSREEMTKNQVSLTCLVKGFYPSDIAVEWESNGQPENNYKTTPPMLDSDGSFFLYSRLTVDKSRWQQGNVFSCSVMHEALHNHYTQKSLSLSPGK light 2: DIQMTQSPSSLSASVGDRVTITCTSSQSLFNVRSQKNYLAWYQQKPGKAPKLLIYWASTRESGVPSRFSGSGSGTDFTLTISSLQPEDFATYYCKQSYDLFTFGGGTKVEIKRTVAAPSVFIFPPSDEQLKSGTASVVCLLNNFYPREAKVQWKVDNALQSGNSQESVTEQDSKDSTYSLSSTLTLSKADYEKHKVYACEVTHQGLSSPVTKSFNRGEC | 0.284 | 79 | 566 | 332 |
| – | – | – | – | – | – | – | – | 0.0127 | 0.00536 | 423000 | 0.0137 | 0.00504 | 369000 | B7-H4xCD3 bispecific antibody 0077 (bispecific antibody, also called anti-B7-H4 clone 19D3) heavy 1: QVQLQQWGAGLLKPSETLSLTCALYGGSFSGYYWNWIRQPPGKGLEWIGEINHSGSANYNPSLKSRVTISVDTSKNQFSLRLSSVTAADTAVYYCARGLYNWNVDRWGQGTLVTVSSASTKGPSVFPLAPCSRSTSESTAALGCLVKDYFPEPVTVSWNSGALTSGVHTFPAVLQSSGLYSLSSVVTVPSSNFGTQTYTCNVDHKPSNTKVDKTVERKCEVECPECPAPPVAGPSVFLFPPKPKDTLMISRTPEVTCVVVAVSHEDPEVQFNWYVDGVEVHNAKTKPREEQFNSTFRVVSVLTVVHQDWLNGKEYKCKVSNKGLPSSIEKTISKTKGQPREPQVYTLPPSREEMTKNQVSLTCEVKGFYPSDIAVEWESNGQPENNYKTTPPMLDSDGSFFLYSKLTVDKSRWQQGNVFSCSVMHEALHNHYTQKSLSLSPGK light 1: not shown heavy 2: EVQLVESGGGLVQPGGSLRLSCAASGFTFSDYYMTWVRQAPGKGLEWVAFIRNQARGYTSDHNPSVKGRFTISRDNAKNSLYLQMNSLRAEDTAVYYCARDRPSYYVLDYWGQGTTVTVSSASTKGPSVFPLAPCSRSTSESTAALGCLVKDYFPEPVTVSWNSGALTSGVHTFPAVLQSSGLYSLSSVVTVPSSNFGTQTYTCNVDHKPSNTKVDKTVERKCRVRCPRCPAPPVAGPSVFLFPPKPKDTLMISRTPEVTCVVVAVSHEDPEVQFNWYVDGVEVHNAKTKPREEQFNSTFRVVSVLTVVHQDWLNGKEYKCKVSNKGLPSSIEKTISKTKGQPREPQVYTLPPSREEMTKNQVSLTCLVKGFYPSDIAVEWESNGQPENNYKTTPPMLDSDGSFFLYSRLTVDKSRWQQGNVFSCSVMHEALHNHYTQKSLSLSPGK light 2: DIQMTQSPSSLSASVGDRVTITCTSSQSLFNVRSQKNYLAWYQQKPGKAPKLLIYWASTRESGVPSRFSGSGSGTDFTLTISSLQPEDFATYYCKQSYDLFTFGGGTKVEIKRTVAAPSVFIFPPSDEQLKSGTASVVCLLNNFYPREAKVQWKVDNALQSGNSQESVTEQDSKDSTYSLSSTLTLSKADYEKHKVYACEVTHQGLSSPVTKSFNRGEC | 0.093 | – | – | – |
